The series deals with the molecule itself. Description: crystal structure.

B1: hRIO2(1-321) (domain or fragment, human, UniProt Q9BVS4 1-321, looked up)
chain: MGKVNVAKLRYMSRDDFRVLTAVEMGMKNHEIVPGSLIASIASLKHGGCNKVLRELVKHKLIAWERTKTVQGYRLTNAGYDYLALKTLSSRQVVESVGNQMGVGKESDIYIVANEEGQQFALKLHRLGRTSFRNLKNKRDYHKHRHNVSWLYLSRLSAMKEFAYMKALYERKFPVPKPIDYNRHAVVMELINGYPLCQIHHVEDPASVYDEAMELIVKLANHGLIHGDFNEFNLILDESDHITMIDFPQMVSTSHPNAEWYFDRDVKCIKDFFMKRFSYESELFPTFKDIRREDTLDVEVSASGYTKEMQADDELLHPLGP
As to B1, the binding result is given as “binds”.

The record behind these values is paper doi:10.1101/553800 (bioRxiv, 2019).
